{
  "source": "paper PMC5980995",
  "about": "“An allostatic mechanism for M2 pyruvate kinase as an amino-acid sensor” (Biochemical Journal, 2018)",
  "proteins": {"B1": {"name": "M2 isoenzyme of pyruvate kinase (M2PYK), human, N-terminal His6 tag (enzyme)", "chain": "not shown"}},
  "target": "the molecule itself",
  "test": "cell-based or functional assay",
  "data": [
    {"protein": "B1", "values": [
      {"measurement": "half-life of the loss of enzyme activity (LDH-coupled assay) after dilution from 20 mg/ml to 0.002 mg/ml in PBS-CM pH 7.4, taken as dissociation of the tetramer", "result": "~15", "unit": "min"}
    ]}
  ]
}
